According to patent US20020182595, “Method of identifying cellular regulators of adeno-associated virus (AAV)” (published 2002):
Changes are numbered by the printed parent chain.

Experiments:
ZF5 zinc finger 4 mutant = target: T1, ZF5 zinc finger 4 mutant (Homo sapiens, UniProt O43829 O43829:1-449, C363S); test: EMSA; no shift detected; settings: tags: untagged and N-terminal 6xMyc versions; label: 32P
T1 sequence: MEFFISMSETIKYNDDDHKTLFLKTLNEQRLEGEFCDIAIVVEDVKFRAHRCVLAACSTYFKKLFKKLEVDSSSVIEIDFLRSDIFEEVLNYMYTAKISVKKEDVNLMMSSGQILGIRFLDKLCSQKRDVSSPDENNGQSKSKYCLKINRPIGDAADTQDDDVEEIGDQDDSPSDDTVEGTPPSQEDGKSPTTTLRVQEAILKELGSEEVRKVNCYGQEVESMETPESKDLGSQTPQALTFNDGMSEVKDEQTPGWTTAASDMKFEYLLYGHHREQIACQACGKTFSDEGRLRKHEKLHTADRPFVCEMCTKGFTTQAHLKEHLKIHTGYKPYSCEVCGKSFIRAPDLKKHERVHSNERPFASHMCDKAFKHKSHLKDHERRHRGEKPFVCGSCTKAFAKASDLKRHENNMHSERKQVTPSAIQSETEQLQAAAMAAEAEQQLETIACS

ZF5 = target: T2, ZF5 (Homo sapiens, UniProt O43829 O43829:1-449); test: EMSA; competed by excess unlabeled wild-type RRS; settings: tags: untagged and N-terminal 6xMyc versions; label: 32P
T2 sequence: T1 sequence with S363C

Rep78 = target: T3, Rep78 (UniProt Q89268 Q89268:1-621); test: EMSA; blocked by wild-type RRS competitor; settings: label: 32P
T3 sequence: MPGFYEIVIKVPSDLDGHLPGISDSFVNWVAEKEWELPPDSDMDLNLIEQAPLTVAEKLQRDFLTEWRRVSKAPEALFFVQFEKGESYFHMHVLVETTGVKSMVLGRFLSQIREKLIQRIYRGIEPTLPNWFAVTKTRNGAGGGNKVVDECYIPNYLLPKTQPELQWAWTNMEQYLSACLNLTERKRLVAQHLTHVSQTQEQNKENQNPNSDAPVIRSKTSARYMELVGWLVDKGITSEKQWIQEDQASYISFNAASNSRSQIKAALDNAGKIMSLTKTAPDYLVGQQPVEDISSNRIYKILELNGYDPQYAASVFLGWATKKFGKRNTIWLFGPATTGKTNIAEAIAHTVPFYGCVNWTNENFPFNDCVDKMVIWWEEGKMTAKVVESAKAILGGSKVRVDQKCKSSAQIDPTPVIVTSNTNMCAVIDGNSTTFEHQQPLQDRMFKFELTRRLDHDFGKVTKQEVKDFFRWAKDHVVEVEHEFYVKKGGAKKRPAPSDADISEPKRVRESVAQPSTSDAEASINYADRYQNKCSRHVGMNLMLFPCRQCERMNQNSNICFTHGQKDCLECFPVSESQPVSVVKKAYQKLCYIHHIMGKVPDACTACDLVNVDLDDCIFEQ

[1] = target: T4, ZF5C (clone A25, C-terminal ZF5 fragment) (Homo sapiens, UniProt O43829 O43829:308-449); test: EMSA; blocked by wild-type RRS competitor; settings: tags: N-terminal 6xMyc; label: 32P
T4 sequence: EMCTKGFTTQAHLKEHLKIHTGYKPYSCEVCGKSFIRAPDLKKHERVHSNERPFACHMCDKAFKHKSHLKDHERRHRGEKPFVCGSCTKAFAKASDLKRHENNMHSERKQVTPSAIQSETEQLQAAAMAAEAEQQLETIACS

B1: RRS probe (core of 32-bp oligonucleotide) (dsDNA)
DNA 1: CTGCGCGCTCGCTCGCTCAC
DNA 2: GTGAGCGAGCGAGCGCGCAG
binding result (ZF5 zinc finger 4 mutant): no binding | binding result (ZF5): binds | binding result (Rep78): binds | binding result [1]: binds
